According to patent EP4786489A1, “IL-22 MUTANT, PREPARATION METHOD THEREFOR, AND USE THEREOF” (Nanjing Novoacine Biotechnology Co., Ltd., priority 2023, dated 2025):

What was measured:
STAT3 = STAT3 phosphorylation in HaCaT cells by FACS (tissue activation preference); format: cell-based, Human; conditions: STAT3 activation in HT29 vs HaCaT cells
Method: Human immortalized keratinocyte HaCaT cells were recovered and cultured in MEM/EBSS medium (Cytiva, SH30024.01) supplemented with 15% FBS and 1% P/S (Cytiva, SV30010). When cell confluence reached 70%-80%, cells were digested with 0.25% Trypsin-EDTA (Gibco, 25200-056), terminated with complete medium, and resuspended to […]. After mixed thoroughly, a total of 120 µL per well cells was seeded into a 96-well plate (Corning, 3599) at a density of 1.5 × 10^5 cells per well and incubated overnight at 37°C with 5% CO2.
wt IL-22 was prepared at an initial working concentration of 1000 nM, and the remaining samples were prepared at 10000 nM as the starting concentration. […] After staining at room temperature in the dark for 1 hour, cells were washed twice with 1× PBS and analyzed by flow cytometry to determine the mean fluorescence intensity (MFI).
Tissue activation preference of different test candidates was evaluated by comparing their ability to activate STAT3 in intestinal-derived HT29 cells and skin-derived HaCaT cells. […] The activity of PEGylated IL-22 mutants in activating STAT3 phosphorylation in HaCaT cells at different concentrations as determined by FACS is shown in Figure 8. […] Tissue preference of PEG-IL22 mutants for STAT3 phosphorylation in human intestinal and human skin cell lines determined by FACS

[1] = Mouse PK, plasma concentration by ELISA; format: in vivo; conditions: single s.c. 1 mg/kg, male Balb/C mice
Method: Male Balb/C mice (n = 4 per group) were administered a single subcutaneous injection at a dose of 1 mg/kg. Blood samples were collected before dosing and at 4 (no samples were collected at this time point for 60k-PEG-IL22-D109C and 60k-PEG-IL22-P120C), 8, 24, […], 48, 72, 96, and 120 hours after dosing. Anticoagulated blood was used to prepare plasma.
The concentrations of each test candidate in plasma were quantified by ELISA. Anti-IL22 Antibody (Sino Biological, 13059-MM24), diluted in PBS to 2 µg/mL, was used for coating. Standard curves of each test candidate and plasma samples were diluted to fall within the linear range of detection. Recombinant Anti-IL22 Antibody (Sino Biological, 13059-R034-H) was used for detection. The original concentration of each test candidate in the samples was calculated using a four-parameter fit of the standard curve for each test candidate. Pharmacokinetic parameters of each test candidate in mouse plasma were analyzed (Figure 12). Table 13. Dosing information for the mouse PK study

[2] = system: DSS-induced mouse acute colitis model; assay: Mouse DSS-induced colitis efficacy model; format: in vivo, Balb/C mice
Text: Balb/C mice were used to evaluate efficacy in a DSS-induced mouse acute colitis model. DSS refers to Dextran Sulfate Sodium Salt (MW: 36,000-50,000). When added to drinking water at an appropriate concentration, DSS disrupts intestinal epithelial cells and induces acute inflammatory bowel disease (IBD) in mice. Therefore, a 4% DSS-induced mouse IBD model was used to evaluate the potential therapeutic efficacy of the test candidates.
Male Balb/C mice were allowed free access to drinking water containing 4% DSS until the average body weight of the model group decreased by approximately 15%. Fresh drinking water was then provided, followed by a 2-day recovery period. Body weight and the severity of loose stool/hematochezia for each mouse were monitored throughout the study (Figure 13), and a composite Disease Activity Index (DAI) was evaluated (Figure 14). At the endpoint, the colon of each mouse was collected and its length measured (Figure 15). The colons were photographed, rolled into a Swiss-roll configuration, fixed in 4% paraformaldehyde, dehydrated, embedded in paraffin, sectioned, and subjected to H&E staining (Figures 17-18). Histological scoring was performed on tissue morphology(Figure 16).
The dosing regimen of the test candidates was as follows (the day of DSS modeling was defined as D1, the previous day as D-1, and so on). Table 15. Dosing information for the mouse DSS-induced colitis model study
Paraffin sections of colon tissues were subjected to H&E staining and histopathological analysis. According to the actual severity of the lesions, the following scoring criteria were used: minimal (1 point), mild (2 points), moderate (3 points), and severe (4 points). Lesion area (%) scoring criteria were defined as: ≥50% (4 points), 25%-50% (3 points), 10%-25% (2 points), and ≤10% (1 point). Inflammation depth scoring criteria were defined as: epithelium (1 point), lamina propria (2 points), and muscularis mucosae (3 points). No lesion was recorded as "-". The score was calculated by summing the scores from the above three dimensions.

B1: 60K-PEG-IL22-P120C: IL-22 cysteine mutant, conjugation site 87, PEG-maleimide 60kD (conjugate)
chain: APISSHCRLDKSNFQQPYITNRTFMLAKEASLADNNTDVRLIGEKLFHGVSMSERCYLMKQVLNFTLEEVLFPQSDRFQPYMQEVVCFLARLSNRLSTCHIEGDDLHIQRNVQKLKDTVKKLGESGEIKAIGELDLLFMSLRNACI
- tissue preference compared with IL-22-Fc (STAT3): superior tissue preference
- AUClast [1]: 105.2029 µg·h/mL
- Cmax [1]: 4184.95 ng/mL
- MRT [1]: 20.17 h
- T1/2 [1]: 11.62 h
- efficacy compared with 0.03 mg/kg IL-22-Fc (Group G6) ([2]; 0.1 mg/kg (Group G4), body weight, DAI, colon length, histological scoring): superior efficacy
- colon tissue morphology (H&E histology) ([2]; 0.1 mg/kg s.c., days 4 and 6 (G4)): relatively intact
- efficacy dose difference relative to IL-22-Fc ([2]; 0.1 mg/kg vs 0.03 mg/kg): 3 fold
- efficacy in the mouse DSS-induced acute colitis model ([2]; body weight, DAI, colon length, histological scoring): clear efficacy
